T1: human IL-18BP (interleukin-18 binding protein, isoform A) (human, UniProt O95998 31-194)
T1 construct: cell assays used Sino Biological 10357-H08H; PBMC assay 1 relies on endogenous IL-18BP; UniProt number is printed as 095998; also called hIL-18BP
T1 sequence: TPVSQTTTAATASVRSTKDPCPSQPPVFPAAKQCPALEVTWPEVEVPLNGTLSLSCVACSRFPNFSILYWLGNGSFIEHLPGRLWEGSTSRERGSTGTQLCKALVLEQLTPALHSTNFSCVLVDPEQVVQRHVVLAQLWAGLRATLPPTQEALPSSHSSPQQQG

T2: human IL-18BP (human, UniProt O95998 31-194)
T2 construct: UniProt printed as 095998; also called hIL-18BP
T2 sequence: T1 sequence

T3: cynomolgus IL-18BP (cynomolgus monkey)
T3 construct: also called cyno IL-18BP; cyIL-18BP
T3 chain: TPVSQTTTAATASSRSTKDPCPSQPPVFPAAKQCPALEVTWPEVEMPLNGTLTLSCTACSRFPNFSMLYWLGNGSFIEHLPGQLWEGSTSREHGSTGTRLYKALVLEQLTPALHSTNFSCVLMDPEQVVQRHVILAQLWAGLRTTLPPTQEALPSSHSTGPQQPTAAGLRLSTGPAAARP

T4: cynomolgus IL-18BP (cynomolgus monkey)
T4 construct: Generated in-house; also called cyIL-18BP; cyno IL-18BP
T4 chain: T3 chain

B1: SA311a (antibody, human IgG1, V domains shown)
VH: QVQLQESGPGLVKPSQTLSLTCTVSGYSITSDYNAHWIRQPPGKGLEWIGYIHYSGQTMYNPSLKSRVTISRDTSKNQFSLKLSSVTAADTAVYYCARNYGSIYVNYFDYWGQGTLVTVSS
VL: EIVLTQSPATLSLSPGERATLSCSASSSVSYMYWYQQKPGQAPRPLIYRTSNLASGIPARFSGSGSGTDFTLTISSLEPEDFAVYYCQQYHSYPTFGGGTKVEIK
notes: humanized; human IgG1 (suffix a), kappa
B2: SA312a (antibody, human IgG1, V domains shown)
VH: B1 VH with S31Q, Q57S
VL: B1 VL
notes: as for B1
B3: SA301a HC-Y50V (antibody, name in Kabat numbering, V domains shown)
VH: B1 VH with A35S, Y51V, Q57S, M59N
VL: B1 VL
notes: IgG1 kappa
B4: heavy chain library variant C34I (antibody, V domains shown)
VH: B1 VH with A35I, Q57S, M59N
VL: B1 VL
B5: heavy chain library variant C34H (antibody, V domains shown)
VH: B1 VH with A35H, Q57S, M59N
VL: B1 VL
B6: heavy chain library variant C34Q (antibody, V domains shown)
VH: B1 VH with A35Q, Q57S, M59N
VL: B1 VL
B7: heavy chain library variant C34R (antibody, V domains shown)
VH: B1 VH with A35R, Q57S, M59N
VL: B1 VL
B8: heavy chain library variant C34P (antibody, V domains shown)
VH: B1 VH with A35P, Q57S, M59N
VL: B1 VL
B9: heavy chain library variant C34D (antibody, V domains shown)
VH: B1 VH with A35D, Q57S, M59N
VL: B1 VL
B10: heavy chain library variant C34F (antibody, V domains shown)
VH: B1 VH with A35F, Q57S, M59N
VL: B1 VL
B11: heavy chain library variant C34E (antibody, V domains shown)
VH: B1 VH with A35E, Q57S, M59N
VL: B1 VL
B12: heavy chain library variant C34K (antibody, V domains shown)
VH: B1 VH with A35K, Q57S, M59N
VL: B1 VL
B13: heavy chain library variant C34L (antibody, V domains shown)
VH: B1 VH with A35L, Q57S, M59N
VL: B1 VL
B14: SA302a heavy chain variant N33bM, C34A (antibody, human IgG1, V domains shown)
VH: B1 VH with N34M, Q57S, M59N
VL: B1 VL
notes: library variant, human IgG1/kappa, from supernatant
B15: SA301a heavy chain variant N33bL, C34S (antibody, human IgG1, V domains shown)
VH: B1 VH with N34L, A35S, Q57S, M59N
VL: B1 VL
notes: as for B14
B16: SA301a heavy chain variant N33bQ, C34S (antibody, human IgG1, V domains shown)
VH: B1 VH with N34Q, A35S, Q57S, M59N
VL: B1 VL
notes: as for B14
B17: SA301a heavy chain variant N33bY, C34S (antibody, human IgG1, V domains shown)
VH: B1 VH with N34Y, A35S, Q57S, M59N
VL: B1 VL
notes: as for B14
B18: SA301a heavy chain variant N33bM, C34S (antibody, human IgG1, V domains shown)
VH: B1 VH with N34M, A35S, Q57S, M59N
VL: B1 VL
notes: as for B14
B19: SA302a heavy chain variant N33bQ, C34A (antibody, human IgG1, V domains shown)
VH: B1 VH with N34Q, Q57S, M59N
VL: B1 VL
notes: as for B14
B20: SA301a heavy chain variant N33bV, C34S (antibody, human IgG1, V domains shown)
VH: B1 VH with N34V, A35S, Q57S, M59N
VL: B1 VL
notes: as for B14
B21: SA301a heavy chain variant N33bK, C34S (antibody, human IgG1, V domains shown)
VH: B1 VH with N34K, A35S, Q57S, M59N
VL: B1 VL
notes: as for B14
B22: SA302a heavy chain variant N33bH, C34A (antibody, human IgG1, V domains shown)
VH: B1 VH with N34H, Q57S, M59N
VL: B1 VL
notes: as for B14
B23: SA302a heavy chain variant N33bK, C34A (antibody, human IgG1, V domains shown)
VH: B1 VH with N34K, Q57S, M59N
VL: B1 VL
notes: as for B14
B24: SA301a heavy chain variant N33bE, C34S (antibody, human IgG1, V domains shown)
VH: B1 VH with N34E, A35S, Q57S, M59N
VL: B1 VL
notes: as for B14
B25: SA301a heavy chain variant N33bP, C34S (antibody, human IgG1, V domains shown)
VH: B1 VH with N34P, A35S, Q57S, M59N
VL: B1 VL
notes: as for B14
B26: heavy chain library variant C34N (antibody, V domains shown)
VH: B1 VH with A35N, Q57S, M59N
VL: B1 VL
notes: position 34 variant, human IgG1/kappa, from supernatant; C is the SA44a residue
B27: SA302a heavy chain variant N33bF, C34A (antibody, human IgG1, V domains shown)
VH: B1 VH with N34F, Q57S, M59N
VL: B1 VL
notes: as for B14
B28: SA302a heavy chain variant N33bT, C34A (antibody, human IgG1, V domains shown)
VH: B1 VH with N34T, Q57S, M59N
VL: B1 VL
notes: as for B14
B29: SA301a heavy chain variant N33bS, C34S (antibody, human IgG1, V domains shown)
VH: B1 VH with N34S, A35S, Q57S, M59N
VL: B1 VL
notes: as for B14
B30: SA301a heavy chain variant N33bT, C34S (antibody, human IgG1, V domains shown)
VH: B1 VH with N34T, A35S, Q57S, M59N
VL: B1 VL
notes: as for B14
B31: SA302a heavy chain variant N33bI, C34A (antibody, human IgG1, V domains shown)
VH: B1 VH with N34I, Q57S, M59N
VL: B1 VL
notes: as for B14
B32: SA301a heavy chain variant N33bG, C34S (antibody, human IgG1, V domains shown)
VH: B1 VH with N34G, A35S, Q57S, M59N
VL: B1 VL
notes: as for B14
B33: SA301a heavy chain variant N33bD, C34S (antibody, human IgG1, V domains shown)
VH: B1 VH with N34D, A35S, Q57S, M59N
VL: B1 VL
notes: as for B14

The record followed here is patent US20250368745A1 (published 2025).

Changes are numbered by the printed parent chain. Numbers in names are those of the source.

The first experiment has as its target T1, human IL-18BP (interleukin-18 binding …). Nature of the experiment: BLI (Octet), mAb on AHC biosensor. A general note: BLI is a label-free optical method that tracks binding on a fibre tip over time.
B1 returned a Kd of 0.243 nM.
The same measure, in the same setting: with B2 the figure was 0.117 nM.

The target is the same in a further experiment. Nature of the experiment: BLI, affinity column of Table E8.
Consider B1, for which the Kd turned out to be 0.243 nM.
On the same count and under the same terms, the value for B2 was 0.117 nM.

Another experiment has as its target T2, human IL-18BP. Put plainly: BLI, apparent KD.
As for B3, the Kd was 1.96 nM.

In a further experiment the target is T3, cynomolgus IL-18BP. Put plainly: BLI, apparent KD.
On to B3, for which the Kd amounted to 10.2 nM.

A further experiment deals with T1, human IL-18BP (interleukin-18 binding …). Put plainly: BLI single-concentration screen, apparent KD.
For the molecule B4, the Kd is 1 nM.
In the case of B5, the Kd stood at 0.4 nM.
On the same count and under the same terms, the value for B6 was 0.6 nM.
The same measure, in the same setting: with B7 the figure was 1.8 nM.
On the same count and under the same terms, the value for B8 was 20.6 nM; that for B9 was 0.5 nM.
Take B10: the Kd turned out to be 0.6 nM.
Still for that read-out and setting: the value for B11 was 0.9 nM.
Same read-out and setting: with B12 the figure was 1 nM; with B13, 0.4 nM.
The same measure, in the same setting: the value for B14 was 0.9 nM; that for B15 was 0.8 nM.
Consider B16, for which the Kd amounted to 1.9 nM.
For the molecule B17, the Kd is 1.2 nM.
On the same count and under the same terms, the value for B18 was 1.9 nM; that for B19 was 1.8 nM; that for B20 was 0.4 nM.
As for B21, the Kd turned out to be 0.4 nM.
B22: the Kd was 0.8 nM.
Still for that read-out and setting: with B23 the figure was 0.3 nM; with B24, 0.1 nM.
On the same count and under the same terms, the value for B25 was 2.5 nM.
Still for that read-out and setting: the value for B26 was 1 nM; that for B27 was 1.5 nM.
Consider B28, for which the Kd stood at 0.1 nM.
B29: the Kd was 1.4 nM.
On the same count and under the same terms, the value for B30 was 0.3 nM; that for B31 was 0.6 nM.
On the same count and under the same terms, the value for B32 was 0.2 nM.

For another experiment, the target named is T4, cynomolgus IL-18BP. Nature of the experiment: BLI single-concentration screen, apparent KD.
Take B33: the Kd worked out at 0.1 nM.
Same read-out and setting: the value for B4 was 0.6 nM.
Still for that read-out and setting: the value for B5 was 0.2 nM; that for B6 was 0.4 nM; that for B7 was 0.6 nM.
Same read-out and setting: with B8 the figure was 9.8 nM; with B9, 0.4 nM; with B10, 0.5 nM.
As to B11, the Kd was determined as 0.5 nM.
The same measure, in the same setting: with B12 the figure was 0.5 nM; with B13, 0.3 nM.
The same measure, in the same setting: with B14 the figure was 1 nM; with B15, 0.6 nM; with B16, 1.1 nM.
On the same count and under the same terms, with B17 the figure was 0.9 nM; with B18, 1.4 nM.
Consider B19, for which the Kd was found to be 1.6 nM.
The same measure, in the same setting: with B20 the figure was 0.3 nM; with B21, 0.9 nM; with B22, 0.6 nM.
On the same count and under the same terms, with B23 the figure was 0.4 nM.
On the same count and under the same terms, with B24 the figure was 0.2 nM; with B25, 1.3 nM.
Turning to B26, the Kd amounted to 0.6 nM.
The same measure, in the same setting: with B27 the figure was 1.4 nM.
The same measure, in the same setting: with B28 the figure was 0.3 nM; with B29, 1 nM; with B30, 0.4 nM.
Take B31: the Kd is 0.4 nM.
Same read-out and setting: with B32 the figure was 0.5 nM.

For another experiment, the target named is T1, human IL-18BP (interleukin-18 binding …). Put plainly: cell-based or functional assay.
In the case of B1, the “EC50 in PBMC Assay 1 (endogenous IL-18BP), IFNγ” value amounted to 0.6 nM and the “EC50 in PBMC Assay 2 (precomplexed IL-18BP), IFNγ” value is 1.24 nM.
On the same counts, the results for B2 are 2.1 nM and 0.74 nM.
